Reference: patent publication US20160137740A1 (AstraZeneca / MedImmune, published 2016)
Where a chain is given by its changes, count along the chain named. “And” between values parts separate entries of the source, which are not always exact repeats. Identical values can stand only once.

Tests used:
[1] = target: T1, Human OX40 (human, UniProt P43489 29-277); assay: cell-based or functional assay
T1 sequence: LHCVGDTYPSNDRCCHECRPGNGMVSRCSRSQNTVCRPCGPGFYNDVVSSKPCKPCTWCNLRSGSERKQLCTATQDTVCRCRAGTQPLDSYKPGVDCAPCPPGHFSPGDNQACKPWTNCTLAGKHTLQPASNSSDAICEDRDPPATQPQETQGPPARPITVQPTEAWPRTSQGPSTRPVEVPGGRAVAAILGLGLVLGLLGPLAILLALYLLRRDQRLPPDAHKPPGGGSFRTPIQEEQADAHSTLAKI

[2] = target: T1, Human OX40; assay: cell-based or functional assay; remark: listed apart in the source
[3] = target: T1, Human OX40; assay: cell-based or functional assay; remark: listed apart in the source
[4] = target: T1, Human OX40; assay: cell-based or functional assay; remark: listed apart in the source
[5] = target: T1, Human OX40; assay: cell-based or functional assay; remark: listed apart in the source
[6] = target: cyno/rhesus OX40 expressed on Jurkat NFκB-luciferase reporter clone B2 (cynomolgus/rhesus monkey); assay: cell-based or functional assay
[7] = target: T2, KO_L116+A126 (human OX40 aa Leu116 and Ala126 replaced with the mouse counterparts) (human, UniProt P43489 29-277); assay: flow cytometry, transfected 293F cells, column KO_L116A126 [FIGURE 32B con't]
T2 construct: Variant with a transmembrane domain, transient on 293F cells
T2 chain: T1 sequence with L88Q, A98V
Method: Forty-eight hours after transfection, HEK293F cells were incubated with 1 μg/mL of OX40mAb24 for 1 hour on ice in PBS. To detect bound OX40mAb24 by flow cytometry, the cells were washed 3-times with cold PBS, incubated with 1 μg/mL of Alexa480-conjugated anti-human IgG antibody for 1 hr on ice, and then analyzed using the LSRII flow cytometer.
The expression levels of all chimeric OX40 variants were also monitored by flow cytometry; the cells were incubated with a mixture of sheep anti-human OX40 and goat anti-mouse OX40 polyclonal antibodies at 1 μg/mL in PBS for 1 hour on ice. Cells were washed 3-times with cold PBS, and then incubated with a mixture of Alexa480-conjugated anti-goat and anti-sheep IgG polyclonal antibodies. After washing 3 times with cold PBS, cells were analyzed with the LSRII flow cytometer.

[8] = target: T1, Human OX40; assay: flow cytometry on activated primary human CD4+ T cells; 50% receptor occupancy calculated from Kd
Method: (§1) OX40mAb24 (10 μg/mL) or 9B12 (10 μg/mL) was diluted over a 17 point 2-fold dilution series. OX40mAb24 was added to 100,000 cells (activated primary CD4⁺ T cells or human OX40-overexpressing Jurkat NFkB-luciferase clone 64 cells) per well and incubated for one hour at 4° C. For background binding subtraction, cells were incubated in the presence of secondary antibody alone. […] Following secondary antibody incubation, cells were washed and suspended in 100 μL FACS buffer for flow cytometry analysis on a BD LSRII flow cytometer as described below.

[9] = target: T1, Human OX40; assay: flow cytometry on human OX40-overexpressing Jurkat clone 64 cells; 50% receptor occupancy calculated from Kd
Method: (§2) Human OX40-overexpressing Jurkat NFκB-luciferase clone 64 cells were cultured in complete RPMI+10% FBS prior to binding experiments, without the need for activation.
as §1

[10] = target: T1, Human OX40; assay: flow cytometry, equilibrium binding to activated primary human CD4+ T cells; apparent Kd, mean of 6 donors (StdErr)
Method: as §1

[11] = target: T1, Human OX40; assay: flow cytometry on activated primary human CD4+ T cells, AlexaFluor 488 anti-mouse IgG secondary [FIGURE 2A-D, con't.), panel C]
Method: as §1

[12] = target: T1, Human OX40; assay: flow cytometry, equilibrium binding to human OX40-overexpressing Jurkat NFkB-luciferase clone 64 cells; mean of 3 experiments (StdErr)
Method: as §2, §1

B1: 9B12 (antibody, mouse IgG1, V domains shown)
VH: EVQLQESGPSLVKPSQTLSLTCSVTGDSFTSGYWNWIRKFPGNRLEYMGYISYNGITYHNPSLKSRISITRDTSKNHYYLQLNSVTTEDTATYFCARYRYDYDGGHAMDYWGQGTLVTVSS
VL: DIQMTQTTSSLSASLGDRVTISCRASQDISNYLNWYQQKPDGTVKLLIYYTSKLHSGVPSRFSGSGSRTDYSLTITDLDQEDIATYFCQQGSALPWTFGQGTKVEIKR
notes: mouse IgG1 kappa; also called murine mAb 9B12; mouse anti-human OX40 IgG1κ monoclonal antibody
With B1 the “EC50, CD4+ T cell proliferation, donor 367” value [1] was 156 pM, the “EC50, CD4+ T cell proliferation, donor 645” value [1] was 169 pM and the “EC50, CD4+ T cell proliferation, donor 651” value [1] was 309 pM. The “EC50, CD4+ T cell proliferation, donor 661” value [1] was 237 pM, the “EC50, TNFα release, donor 645” value [2] was 670 pM and the “EC50, TNFα release, donor 651” value [2] was 764 pM. For the same binder, the “EC50, IL13 release, donor 645” value [3] was 5.45 nM, the “EC50, IL13 release, donor 651” value [3] was 1770 pM and the “EC50, IL13 release, donor 661” value [3] was 238 pM. For the same binder, the “EC50, IL5 release, donor 651” value [4] was 1090 pM, the “mean EC50, NFκB-luciferase 2-cell assay, human Raji B cells + human OX40 Jurkat clone 64” value [5] was 4.68 nM and the “EC50, NFκB-luciferase 2-cell assay, rhesus RBC-lysed whole blood + cyno/rhesus OX40 Jurkat clone B2” value [6] was 6.05 nM. The binding result [7] was “no binding”, the EC50 [8] was 0.669 nM and the EC50 [9] was 0.726 nM. For the same binder, the Kd [10] was 0.669 nM, the “EC50 (read off the curve)” value [11] was ~1000 pM and ~500 pM and the Kd [12] was 0.726 nM.
